Our source for the protein stability index values is the supplement of paper PMC10567573.

Sequences and labels used below:
B1: STK38L (parent)
chain: RQLAYSTVGTPDYIAPEVFMQTGY
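Also: lentivirally expressed fusions sorted by FACS into six bins by GFP to DsRed ratio, PSI derived from sequencing read proportions per bin multiplied by bin number.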

In this data set the parent is B1. The data set can be described thus: protein stability index of a GFP-peptide fusion (GPS, HEK-293T) (PSI 1-6); higher = more stable. To be noted: c terminus: a fixed tail appended.
RQLAYSTVGTPDYIAKEVFMQTGY [P16K]: the protein stability index is 1.91.
For RQLAYSTVGTPDYIAGEVFMQTGY [P16G], the protein stability index was 1.96.
The result for RQLAYSTVGTPDYIANEVFMQTGY [P16N] reads 2.81; that for RQLAYSTVGTPDYIATEVFMQTGY [P16T], 1.82.
Regarding RQLAYSTVGTPDYIAMEVFMQTGY [P16M], the protein stability index was found to be 2.13.
RQLAYSTVGTPDYIAYEVFMQTGY [P16Y]: the protein stability index amounted to 1.89.
The result for RQLAYSTVGTPDYIAQEVFMQTGY [P16Q] reads 2.35; that for RQLAYSTVGTPDYIALEVFMQTGY [P16L], 1.57.
The result for RQLAYSTVGTPDYIAEEVFMQTGY [P16E] reads 2.96.
The result for RQLAYSTVGTPDYIAAEVFMQTGY [P16A] reads 2.3; that for RQLAYSTVGTPDYIASEVFMQTGY [P16S], 2.16.
Turning to RQLAYSTVGTPDYIACEVFMQTGY [P16C], the protein stability index amounted to 2.29.
The result for RQLAYSTVGTPDYIAREVFMQTGY [P16R] reads 2.12.
With RQLAYSTVGTPDYIAFEVFMQTGY [P16F], the protein stability index was 2.79.
The result for RQLAYSTVGTPDYIAHEVFMQTGY [P16H] reads 2.17.
The result for RQLAYSTVGTPDYIADEVFMQTGY [P16D] reads 2.46; that for RQLAYSTVGTPDYIAIEVFMQTGY [P16I], 3.9.
The result for RQLAYSTVGTPDYIAPEVFMQTGM [Y24M] reads 2.67.
On to RQLAYSTVGTPDYIAPEVFMQTGD [Y24D], for which the protein stability index worked out at 4.18.
The result for RQLAYSTVGTPDYIAPEVFMQTGA [Y24A] reads 3.35; that for RQLAYSTVGTPDYIAPEVFMQTGE [Y24E], 4.54.
As for RQLAYSTVGTPDYIAPEVFMQTGG [Y24G], the protein stability index is 3.43.
The result for RQLAYSTVGTPDYIAPEVFMQTGL [Y24L] reads 2.44; that for RQLAYSTVGTPDYIAPEVFMQTGI [Y24I], 2.63.
The result for RQLAYSTVGTPDYIAPEVFMQTGF [Y24F] reads 2.19; that for RQLAYSTVGTPDYIAPEVFMQTGH [Y24H], 3.26; that for RQLAYSTVGTPDYIAPEVFMQTGK [Y24K], 3.38.
The result for RQLAYSTVGTPDYIAPEVFMQFGY [T22F] reads 2.09; that for RQLAYSTVGTPDYIAPEVFMQIGY [T22I], 2.39; that for RQLAYSTVGTPDYIAPEVFMQAGY [T22A], 2.13.
As to RQLAYSTVGTPDYIAPEVFMQVGY [T22V], the protein stability index stood at 1.68.
The result for RQLAYSTVGTPDYIAPEVFMQWGY [T22W] reads 1.36; that for RQLAYSTVGTPDYIAPEVFMQEGY [T22E], 3.46; that for RQLAYSTVGTPDYIAPEVFMQSGY [T22S], 2.77.
The result for RQLAYSTVGTPDYIAPEVFMQRGY [T22R] reads 2.85.
The result for RQLAYSTVGTPDYIAPEVFMQNGY [T22N] reads 2.98.
Turning to RQLAYSTVGTPDYIAPEVFMQMGY [T22M], the protein stability index came to 2.48.
The result for RQLAYSTVGTPDYIAPEVFMQKGY [T22K] reads 2.32; that for RQLAYSTVGTPDYIAPEVFMQYGY [T22Y], 2.47; that for RQLAYSTVGTPDYIAPEVFMQLGY [T22L], 1.96.
The result for RQLAYSTVGTPDYIAPEVFMQHGY [T22H] reads 2.63.
The result for RQLAYSTVGTPDYIAPEVFMQGGY [T22G] reads 3.65; that for RQLAYSTVGTPDYIAPEVFMQCGY [T22C], 2.24.
For RQLAYSTVGTPDYIAPEVFMQDGY [T22D], the protein stability index stood at 3.02.
The result for RQLAYSTVGTPDYIAPEVFMQQGY [T22Q] reads 3.04.
The result for RQLAYSTVGTPDYIAPEVFMQPGY [T22P] reads 3.18; that for RQLAYSTVGTPDYIFPEVFMQTGY [A15F], 1.98; that for RQLAYSTVGTPDYIHPEVFMQTGY [A15H], 2.1.
The result for RQLAYSTVGTPDYIVPEVFMQTGY [A15V] reads 2.28.
Consider RQLAYSTVGTPDYILPEVFMQTGY [A15L], for which the protein stability index came out at 2.3.
For RQLAYSTVGTPDYIIPEVFMQTGY [A15I], the protein stability index is 1.43.
The result for RQLAYSTVGTPDYIEPEVFMQTGY [A15E] reads 3.15; that for RQLAYSTVGTPDYIKPEVFMQTGY [A15K], 2.46.
For RQLAYSTVGTPDYITPEVFMQTGY [A15T], the protein stability index turned out to be 2.4.
The result for RQLAYSTVGTPDYIRPEVFMQTGY [A15R] reads 2.27; that for RQLAYSTVGTPDYIQPEVFMQTGY [A15Q], 3.4; that for RQLAYSTVGTPDYIYPEVFMQTGY [A15Y], 1.68.
The result for RQLAYSTVGTPDYIDPEVFMQTGY [A15D] reads 2.93; that for RQLAYSTVGTPDYISPEVFMQTGY [A15S], 2.78.
Consider RQLAYSTVGTPDYIGPEVFMQTGY [A15G], for which the protein stability index was determined as 3.12.
The result for RQLAYSTVGTPDYIMPEVFMQTGY [A15M] reads 2.19; that for RQLAYSTVGTPDYIWPEVFMQTGY [A15W], 1.58.
The result for RQLAYSTVGTPDYINPEVFMQTGY [A15N] reads 2.21.
The result for RQLAYSTVGTPDYICPEVFMQTGY [A15C] reads 2.57; that for RQLAYSTVGTPDYIPPEVFMQTGY [A15P], 3.29; that for RQLAYSTVGTPDYIAPEVGMQTGY [F19G], 3.53.
As to RQLAYSTVGTPDYIAPEVAMQTGY [F19A], the protein stability index amounted to 3.68.
The result for RQLAYSTVGTPDYIAPEVIMQTGY [F19I] reads 2.51; that for RQLAYSTVGTPDYIAPEVNMQTGY [F19N], 3.22.
The result for RQLAYSTVGTPDYIAPEVYMQTGY [F19Y] reads 2.61; that for RQLAYSTVGTPDYIAPEVEMQTGY [F19E], 3.38.
The result for RQLAYSTVGTPDYIAPEVSMQTGY [F19S] reads 2.78.
For RQLAYSTVGTPDYIAPEVVMQTGY [F19V], the protein stability index was found to be 2.71.
The result for RQLAYSTVGTPDYIAPEVPMQTGY [F19P] reads 3.47; that for RQLAYSTVGTPDYIAPEVDMQTGY [F19D], 4.07.
The result for RQLAYSTVGTPDYIAPEVHMQTGY [F19H] reads 2.76; that for RQLAYSTVGTPDYIAPEVLMQTGY [F19L], 2.92.
The result for RQLAYSTVGTPDYIAPEVTMQTGY [F19T] reads 3.61.
With RQLAYSTVGTPDYIAPEVQMQTGY [F19Q], the protein stability index was 3.11.
Take RQLAYSTVGTPDYIAPEVCMQTGY [F19C]: the protein stability index is 3.08.
The result for RQLAYSTVGTPDYIAPEVMMQTGY [F19M] reads 2.82; that for RQLAYSTVGTPDYIAPEVRMQTGY [F19R], 3.81.
The result for RQLAYSTVGTPDYIAPEVKMQTGY [F19K] reads 3.12; that for RQLAYSTVGTPDYIAPEPFMQTGY [V18P], 2.31; that for RQLAYSTVGTPDYIAPETFMQTGY [V18T], 2.73.
The result for RQLAYSTVGTPDYIAPEGFMQTGY [V18G] reads 3.16; that for RQLAYSTVGTPDYIAPEYFMQTGY [V18Y], 3.3; that for RQLAYSTVGTPDYIAPEQFMQTGY [V18Q], 3.1.
Take RQLAYSTVGTPDYIAPENFMQTGY [V18N]: the protein stability index was determined as 2.97.
The result for RQLAYSTVGTPDYIAPEMFMQTGY [V18M] reads 2.29; that for RQLAYSTVGTPDYIAPEKFMQTGY [V18K], 2.25.
The result for RQLAYSTVGTPDYIAPELFMQTGY [V18L] reads 1.8; that for RQLAYSTVGTPDYIAPECFMQTGY [V18C], 2.58; that for RQLAYSTVGTPDYIAPERFMQTGY [V18R], 2.66.
